From the RNAGym collection of RNA variant scans (doi:10.1073/pnas.2313332121)

B1: TPR t1 (parent)
chain: GACCAAUCUGCCCUCAGAGCUCGAGAACAUCUUCGGAUGCAGAGGAGGCAGGCUUCGGUGGCGCGAUAGCGCCAACGUCCUCAACCUCCAAUGCAUCCCACCACAUGAUGAUGCCUGAAGAGCCUUGGUUUUUUG

Variants of: B1
Test: polymerase ribozyme fitness, log enrichment relative to wild type (log ratio); higher = more active; in vitro selection for triplet polymerase activity
In short: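 Each subunit of a heterodimeric triplet polymerase ribozyme was mutagenized into a library by PCR, transcribed, and subjected to one round of in vitro selection, run in triplicate. Libraries were annealed with a biotinylated primer, the partner subunit and triplets, incubated frozen at −7 °C, and extended constructs were gel-excised, captured on streptavidin beads and recovered by RT-PCR. Input and output libraries were sequenced on Illumina, keeping genotypes with ≥10 input reads and ≥1 read per output. Fitness is log base 2 of genotype enrichment divided by wild-type enrichment, from inverse-variance-weighted replicate averages.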

Variant | polymerase ribozyme fitness (log ratio)
A43C A46C C62U U87A C101U | -2.85
A43C G71U C88A C123U | -3.41
A41U G48U C76A | -1.72
A43G A50C C85U C89A | -3.67
G42U C62U | -1.69
A41G G113A C124A | -0.366
G42U C73A C99U | -6.29
G42U U55G G117A | -3.02
A41U G45C G60A C62U | -2.39
G42C G57A A105U | -5.05
A43U G63U G113U A119G | -2.34
A41U G60U U78A A95G U126A | -4.53
A41U G63A C86G C101U | -4.01
A43U G44A C115A C124A U125C U132A | 0.582
G42A A91C C123U U131A | -1.71
A43U G63C U78C | -3.61
A43U G60C C82A G113A G128C | -4.68
A43G C80A C115G | -7.29
A43C U55G G61C C79U C97U U116G | -5.31
G42C G44C C56U C104U | -0.811
A43U G44C G63A | -2.96
A43U G69U A91C | 0.416
G42C G61U | -1.04
A43U G120C C124U | -0.575

Variant | polymerase ribozyme fitness (log ratio)
A43U G110A | -3.03
A43U C56G G71U G120A | -4.58
G42A G60A | -2.03
G42U A95G | -0.388
G42A A43U G52A C73U U133C | -1.65
A41G C56A A75U G117U | -3.99
G42U C62U C64U A84G | -4.19
A43U G93C G117A | -4.2
A43G C101U | -1.47
A41U C89U C123A | -1.59
A43U G71A | -2.46
G42A G48C C62A A119U C124A | -3.3
A41G G69C | -1.9
A43C C53U | -2.24
A43G U109A | -6.81
G42U C101U | -1.21
G42A G61C U133A | -5.31
G42C A111G A121C | -1.57
A41U G77A U116C U129C | -3.98
G42A G63U | -3.48
G42C G44C U81C G120A | -2.45
A41U G60U | -1.91
G42U C56A | -3.39
G42A C53U G63U | -3.99

Variant | polymerase ribozyme fitness (log ratio)
G44A A121U | 1.03
G44A A46U C85U C86G | -4.71
G42U G61C | -3.59
G42C G77U | -1.59
G42U U78C C88A U92A G120A | -1.83
A43U U54A C73U G77C | -1.92
G44A C49G U55G C85U U106G G107C C115G | -6.1
A43G C56U U109A G117U | -5.89
A41U C70U A84U U116C C124U U130A | -5.57
A43U G44U G48A G122A | -2.63
G42C G63A | -3.47
G42U C80U | -2.21
G42C G69C C86A G117C | -6.61
A41U C73G A90C C114U G128A | -5.13
G42A A50U C101U | -4.32
G42A A50U | -4.57
G42C C56U G69U G93A G120C U131G | -3.67
A43C G61A C85G G113A C115U | -5.36
G42U C56U C72U C85G G110U | -5.53
A41U C53G C62G A84U U112A | -4.47
G44A C49U U106G | -5.12
A41U U55G A91U C101G | -4.09
A43U A46G C62G | -4.27
G42U U106A G120C | -2.14

Variant | polymerase ribozyme fitness (log ratio)
G42A G60U G69U | -6.05
A43U G71U U116C G128C | -5.7
G42A G71U A119U | -2.99
G42U G47A | -1.67
A43G G61A U78C G117U | -4.59
A41G G61C A95C C101U U106A | -3.41
G42U G45C C76U | -2.43
G42U G47U C123G | -1.61
G42C C70A | -4.99
G42A G63A A83U A121U | -3.11
G42A U96A | -2.83
G42U C56U C86U | -1.14
A43U C56A C85G | -3.95
A43G C88G G113U A121G | -3.25
A41U G65U | -6
G42A A108G A121G | -2.74
A41U G57A G77A | -1.68
G42U C73A G127A | -2.84
G42U G120U | -1.31
A43U G60U C82A G113A G128C | -4.46
A43G C56U | -1.77
G42A U78G U87C C114U | -2.18
G42C G60C G77C U78A U130G G135C | -3.55
G42U G47C C102A U112G G120U | -6.76

Variant | polymerase ribozyme fitness (log ratio)
G42A C72G C89G | -3.84
A43C C101G A121U | -2.62
A41G G48A | -1.31
A43G G61C | -4.3
G42C G71U | -2.39
G42A C64U C115A A119U | -3.76
G42C A91G U112A | -0.613
A41U G110U U125A | -4.14
G42C C64A | -7.59
A41U C53A C115A | -1.03
A43U G60U C64G C73G C85U C98G C115U | -6.57
A43U G113A | -1.27
G42U C124G G135C | 0.643
G42A G44U C70U C76U | -4.28
A43U C86U | -2.52
A43C G57U G77U | -2.72
A43G C70U G120U G128U | -3.88
A43C G48C C72G C102G | -7.62
A41U C53U C73A G120U | -2.14
G44A C49A C85G C94A | -3.35
A43G G52C C53A G61A U96C | -2.66
A43C G63A | -4.15
A43U U54A G122U | -2.82
G42C G52A G60U C101U C104A | -5.59

Variant | polymerase ribozyme fitness (log ratio)
A43C G61U C123G | -1.3
A41G A83U | -0.499
A43U U59A U134G | -1.56
A43G G63A A121G U129A | -3.06
A43G U55C C64U C72G | -2.14
A43U C80U C99U G120C | -6.23
A41G G63U | -2.37
A41G G71C U116G | -3.99
G42A C82U | -1.95
A43C C70U | -3.69
G42A G69U C76A A121U | -3.23
A41G C49G G58U C79A | -6.14
G42A A95C | -1.94
G44A A46U A91G U92A | -5.83
A43U G48U G61A | -1.54
A41U G71C | -3.84
A43G C73U C79A U96G A118U | -4.39
G42C G120A | -1.29
A43U C114G G117C U126A | -5.06
G42U A66U | -2.91
A43G U133A | -1.57
A43C G45U | -3.71
A43G A100U | -2.72
A41U G57U | -1.23

Variant | polymerase ribozyme fitness (log ratio)
G42U G57C C104U U125G | -1.31
G42U C73U G117A | -3.05
A41G A111C | -0.47
G44A C49U A50C U78C U133G G135U | -1.75
A41G C56A | -1.81
A43G U87G | -0.843
A43U G47C U92C G93C A121G | -0.371
G42A G44U C53A U55A G127C | -3.14
G42U U59A C62G C88G A90U C98U | -7.74
A41U C53G C62G G113C | -6.56
G42A G117A | -2.65
G42U C56G C73U G110A | -4.56
G42U G52C U55A | -2.16
A43U C53U G77U C85G U106A | -5.13
G42U U78C C94G A100C | -4.78
A41U G52A U59C A108G C114G U125G | -5.99
G42U G45A G110C | -5.34
A43U C56A | -1.69
A43G G44C A46U G63C G120A | -5.64
A43C U112G U126G G128U | -3.02
A43C G51U C82G A121U | -6.24
A43G C85G | -2.89
A43C U54A | -2.54
